Assay [1] deals with pro-HB-EGF on Vero cells. Nature of the assay: Schild regression from inhibition of diphtheria toxin cytotoxicity on Vero cells.
In assay [2] the target is pro-HB-EGF on Vero cells. The description is as above. This is another data set of the same source.
For assay [3], the target named is pro-HB-EGF on Vero cells. Put plainly: ratio of Kd values from Schild regression (Vero cytotoxicity).

Data on 3 molecules can be found in US20150051146A1.

Like-named read-outs stand apart in the source and are kept apart here.

With “CRM197 (natural mutant of diphtheria toxin comprising the G52E mutation) (from UniProt P00587 26-560) (ligand)”, the equilibrium dissociation constant (Kd) in assay [1] and in assay [2] was 3.1 nM in each case.

Take “wild-type DTR protein (DTRWT) (from UniProt P00587 405-560) (ligand)”: in assay [3], the fold lower affinity for HB-EGF and pro-HB-EGF against CRM197 came to 2 fold. The Kd in assay [1] and in assay [2] was 6.5 nM throughout.

B1: Clone 1D6 (DTR carrying the mutations Y380K/Q387E/L390T) (designed binder)
chain: MGKSPGHKTEPFTHDGYAVSWNTVEDSIIRTGFQGESGHDIKITAENTPLPIAGVLLPTIPGKLDVNKSKTHISVNGRKIRMRCRAIDGDVTFCRPKSPVYVGNGVHANLHVAFHRSSSEKIHSNEISSDSIGVLGYQKTVDHTKVNSKLSLFFEIKS
B1 gave a Kd in assay [1] of 0.025 nM.
